Values of other authors in publication PMC6092819.

Biological target: Kv1.3 (Homo sapiens) (UniProt P22001)
UniProt P22001, sequence (P22001 whole entry): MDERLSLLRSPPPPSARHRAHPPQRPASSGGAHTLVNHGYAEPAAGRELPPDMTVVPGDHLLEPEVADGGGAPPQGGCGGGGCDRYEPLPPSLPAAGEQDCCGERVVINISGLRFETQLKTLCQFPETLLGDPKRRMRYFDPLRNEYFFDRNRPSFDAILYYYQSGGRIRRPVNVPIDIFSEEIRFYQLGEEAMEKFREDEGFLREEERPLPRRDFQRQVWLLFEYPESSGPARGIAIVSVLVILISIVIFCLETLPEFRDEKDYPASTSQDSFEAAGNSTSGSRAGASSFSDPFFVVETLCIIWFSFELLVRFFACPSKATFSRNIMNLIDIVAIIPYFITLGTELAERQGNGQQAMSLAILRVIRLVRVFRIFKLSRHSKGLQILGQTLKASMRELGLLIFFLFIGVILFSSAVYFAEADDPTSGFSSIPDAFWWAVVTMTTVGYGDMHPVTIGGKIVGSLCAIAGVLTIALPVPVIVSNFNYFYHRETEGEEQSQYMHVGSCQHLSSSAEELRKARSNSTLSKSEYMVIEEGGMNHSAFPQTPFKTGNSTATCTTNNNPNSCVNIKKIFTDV

ShK (from UniProt P29187)
Kd: 0.01 nM
